Measurements: US10925971B2, “Methods of treating PRLR positive breast cancer” (Regeneron Pharmaceuticals, Inc., priority 2016, dated 2021)

Target: T1, hPRLR-mmH (SEQ ID NO:406) (Homo sapiens, UniProt P16471)
T1 construct: this experiment was conducted with a truncated form of PRLR (i.e., hPRLR-mmH)
Assay: Epitope mapping by hydrogen/deuterium exchange with MALDI-TOF MS
Type: binding
Experimental: Experiments were conducted to determine the amino acid residues of PRLR with which H1H6958N2 interacts. For this purpose hydrogen/deuterium (H/D) exchange epitope mapping was carried out. A general description of the H/D exchange method is set forth in e.g., Ehring (1999) Analytical Biochemistry 267(2):252-259; and Engen and Smith (2001) Anal. Chem. 73:256A-265A.
To map the binding epitope(s) of antibody H1H6958N2 on hPRLR via H/D exchange, a construct comprising a recombinant extracellular domain of hPRLR with a C-terminal myc-myc-hexahistidine tag (hPRLR-mmH; SEQ ID NO: SEQ ID NO:406) was buffer exchanged to PBS with a final concentration of 8 mg/mL, and antibody H1H6958N2 was covalently attached to N-hydroxysuccinimide (NHS) agarose beads (GE Lifescience)
In the ‘on-solution/off-beads’ (on-exchange in solution followed by off-exchange on beads) experiment, the hPRLR was deuterated for 5 min or 10 min in PBS buffer prepared with D2O, and then bound to H1H6958N2 beads through a 2 min incubation. The hPRLR-bound beads were washed with PBS aqueous buffer (prepared with H2O) and incubated PBS buffer for half of the on-exchange time. After the off-exchange, the bound hPRLR was eluted from beads with an ice-cold low pH TFA solution. The eluted hPRLR was then digested with immobilized pepsin (Thermo Scientific) for 5 min. The resulting peptides were desalted using ZipTip® chromatographic pipette tips and immediately analyzed by UltrafleXtreme matrix assisted laser desorption ionization time of flight (MALDI-TOF)-TOF mass spectrometry (MS).
In the ‘on-beads/off-beads’ (on-exchange on beads followed by off-exchange on beads) experiment, hPRLR was first bound to H1H6958N2 beads and then incubated for 5 min or 10 min in D2O for on-exchange. The following steps (off-exchange, pepsin digestion, and MS analysis) were carried out as described for the ‘on-solution/off-beads’ procedure. The centroid values or average mass-to-charge ratios (m/z) of all the detected peptides were calculated and compared between these two sets of experiments.
The results are summarized in Table 29 which provides a comparison of the centroid m/z values for all the detected peptides identified by liquid chromatography and MS following the H/D exchange and peptic digest procedure described above. For purposes of the present Example, a positive difference (A) of at least 0.20 m/z in both experiments indicates amino acids protected by antibody binding. Segments meeting this criterion are indicated by bold text and an asterisk (*) in Table 29. [Note that, although this experiment was conducted with a truncated form of PRLR (i.e., hPRLR-mmH; SEQ ID NO: 406), residue numbering in the far left column of Table 29 has been adjusted to correspond to the amino acid sequence of the full-length PRLR protein represented by SEQ ID NO: 404.]

[1] = hPRLR peptide residues 168-180 of SEQ ID NO: 404, Experiment II 10 min on-/5 min off-exchange
[2] = hPRLR peptide residues 169-180 of SEQ ID NO: 404, Experiment I 5 min on-/2.5 min off-exchange
[3] = hPRLR peptide residues 169-180 of SEQ ID NO: 404, Experiment II 10 min on-/5 min off-exchange
[4] = hPRLR peptide residues 170-179 of SEQ ID NO: 404, Experiment I 5 min on-/2.5 min off-exchange
[5] = hPRLR peptide residues 170-179 of SEQ ID NO: 404, Experiment II 10 min on-/5 min off-exchange
[6] = hPRLR peptide residues 170-180 of SEQ ID NO: 404, Experiment I 5 min on-/2.5 min off-exchange
[7] = hPRLR peptide residues 170-180 of SEQ ID NO: 404, Experiment II 10 min on-/5 min off-exchange
[8] = hPRLR peptide residues 191-205 of SEQ ID NO: 404, Experiment I 5 min on-/2.5 min off-exchange
[9] = hPRLR peptide residues 191-205 of SEQ ID NO: 404, Experiment II 10 min on-/5 min off-exchange
[10] = hPRLR peptide residues 192-202 of SEQ ID NO: 404, Experiment I 5 min on-/2.5 min off-exchange
[11] = hPRLR peptide residues 192-202 of SEQ ID NO: 404, Experiment II 10 min on-/5 min off-exchange
[12] = hPRLR peptide residues 192-205 of SEQ ID NO: 404, Experiment I 5 min on-/2.5 min off-exchange
[13] = hPRLR peptide residues 192-205 of SEQ ID NO: 404, Experiment II 10 min on-/5 min off-exchange
[14] = hPRLR peptide residues 206-215 of SEQ ID NO: 404, Experiment I 5 min on-/2.5 min off-exchange
[15] = hPRLR peptide residues 206-215 of SEQ ID NO: 404, Experiment II 10 min on-/5 min off-exchange
[16] = hPRLR peptide residues 206-217 of SEQ ID NO: 404, Experiment I 5 min on-/2.5 min off-exchange
[17] = hPRLR peptide residues 206-217 of SEQ ID NO: 404, Experiment II 10 min on-/5 min off-exchange
[18] = hPRLR peptide residues 206-222 of SEQ ID NO: 404, Experiment I 5 min on-/2.5 min off-exchange
[19] = hPRLR peptide residues 206-222 of SEQ ID NO: 404, Experiment II 10 min on-/5 min off-exchange
[20] = hPRLR peptide residues 236-249 of SEQ ID NO: 404, Experiment I 5 min on-/2.5 min off-exchange
[21] = hPRLR peptide residues 236-249 of SEQ ID NO: 404, Experiment II 10 min on-/5 min off-exchange
[22] = hPRLR peptide residues 238-261 of SEQ ID NO: 404, Experiment I 5 min on-/2.5 min off-exchange
[23] = hPRLR peptide residues 238-261 of SEQ ID NO: 404, Experiment II 10 min on-/5 min off-exchange
[24] = hPRLR peptide residues 241-261 of SEQ ID NO: 404, Experiment I 5 min on-/2.5 min off-exchange
[25] = hPRLR peptide residues 241-261 of SEQ ID NO: 404, Experiment II 10 min on-/5 min off-exchange
[26] = hPRLR peptide residues 250-261 of SEQ ID NO: 404, Experiment I 5 min on-/2.5 min off-exchange
[27] = hPRLR peptide residues 250-261 of SEQ ID NO: 404, Experiment II 10 min on-/5 min off-exchange

T1 sequence (P16471 with tags, fused parts or gaps): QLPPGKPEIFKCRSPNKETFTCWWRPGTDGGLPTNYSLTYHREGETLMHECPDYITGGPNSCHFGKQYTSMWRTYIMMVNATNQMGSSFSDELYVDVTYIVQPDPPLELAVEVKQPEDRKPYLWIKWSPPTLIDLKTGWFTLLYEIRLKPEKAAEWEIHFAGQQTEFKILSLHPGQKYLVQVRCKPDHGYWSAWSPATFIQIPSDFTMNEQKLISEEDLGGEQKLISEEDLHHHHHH

B1: H1H6958N2: anti-PRLR antibody, receptor blocking, human IgG1 Fc form of H2M6958N2 of Table 1; HCVR/LCVR SEQ ID NOs 290/298 (antibody, V domains shown)
VH: QVQLVESGGGVVQPGRSLRLSCGASGFTFRNYGMQWVRQGPGKGLEWVTLISFDGNDKYYADSVKGRFTISRDNSKNTLFLQMNSLRTEDTAVYYCARGGDFDYWGQGTLVTVSS
VL: DIQMTQSPSSLSASVGDRVTITCRASQDIRKDLGWYQQKPGKAPKRLIYAASSLHSGVPSRFSGSGSGTEFTLTISSLQPEDFATYYCLQHNSYPMYTFGQGTKLEIK
In the case of B1, the “Δ (centroid m/z difference)” value (hPRLR peptide residues 168-180 of SEQ ID NO: 404, Experiment I 5 min on-/2.5 min off-exchange) is reported as −0.06 m/z, the “centroid m/z, on-beads/off-beads” value [1] is reported as 1633.64 m/z and the “centroid m/z, on-solution/off beads” value [1] is reported as 1633.71 m/z. For the same molecule, the “Δ (centroid m/z difference)” value [1] was 0.08 m/z, the “centroid m/z, on-beads/off-beads” value [2] was 1469.86 m/z and the “centroid m/z, on-solution/off beads” value [2] was 1469.67 m/z. The “Δ (centroid m/z difference)” value [2] was −0.19 m/z, the “centroid m/z, on-beads/off-beads” value [3] was 1469.67 m/z and the “centroid m/z, on-solution/off beads” value [3] was 1469.71 m/z. The “Δ (centroid m/z difference)” value [3] was 0.04 m/z, the “centroid m/z, on-beads/off-beads” value [4] was 1155.35 m/z and the “centroid m/z, on-solution/off beads” value [4] was 1155.40 m/z. The “Δ (centroid m/z difference)” value [4] was 0.05 m/z, the “centroid m/z, on-beads/off-beads” value [5] was 1155.39 m/z and the “centroid m/z, on-solution/off beads” value [5] was 1155.40 m/z. For the same molecule, the “Δ (centroid m/z difference)” value [5] was 0.01 m/z, the “centroid m/z, on-beads/off-beads” value [6] was 1341.66 m/z and the “centroid m/z, on-solution/off beads” value [6] was 1341.62 m/z. The “Δ (centroid m/z difference)” value [6] was −0.04 m/z, the “centroid m/z, on-beads/off-beads” value [7] was 1341.34 m/z and the “centroid m/z, on-solution/off beads” value [7] was 1341.49 m/z. For the same molecule, the “Δ (centroid m/z difference)” value [7] was 0.15 m/z, the “centroid m/z, on-beads/off-beads” value [8] was 1772.03 m/z and the “centroid m/z, on-solution/off beads” value [8] was 1772.03 m/z. For the same molecule, the “Δ (centroid m/z difference)” value [8] was −0.01 m/z, the “centroid m/z, on-beads/off-beads” value [9] was 1772.28 m/z and the “centroid m/z, on-solution/off beads” value [9] was 1772.15 m/z. For the same molecule, the “Δ (centroid m/z difference)” value [9] was −0.13 m/z, the “centroid m/z, on-beads/off-beads” value [10] was 1284.39 m/z and the “centroid m/z, on-solution/off beads” value [10] was 1284.36 m/z. For the same molecule, the “Δ (centroid m/z difference)” value [10] was −0.03 m/z, the “centroid m/z, on-beads/off-beads” value [11] was 1284.43 m/z and the “centroid m/z, on-solution/off beads” value [11] was 1284.32 m/z. For the same molecule, the “Δ (centroid m/z difference)” value [11] was −0.11 m/z, the “centroid m/z, on-beads/off-beads” value [12] was 1624.98 m/z and the “centroid m/z, on-solution/off beads” value [12] was 1624.94 m/z. For the same molecule, the “Δ (centroid m/z difference)” value [12] was −0.04 m/z, the “centroid m/z, on-beads/off-beads” value [13] was 1625.17 m/z and the “centroid m/z, on-solution/off beads” value [13] was 1625.08 m/z. The “Δ (centroid m/z difference)” value [13] was −0.10 m/z, the “centroid m/z, on-beads/off-beads” value [14] was 1261.33 m/z and the “centroid m/z, on-solution/off beads” value [14] was 1261.44 m/z. For the same molecule, the “Δ (centroid m/z difference)” value [14] was 0.11 m/z, the “centroid m/z, on-beads/off-beads” value [15] was 1261.46 m/z and the “centroid m/z, on-solution/off beads” value [15] was 1261.24 m/z. The “Δ (centroid m/z difference)” value [15] was −0.22 m/z, the “centroid m/z, on-beads/off-beads” value [16] was 1419.65 m/z and the “centroid m/z, on-solution/off beads” value [16] was 1419.64 m/z. For the same molecule, the “Δ (centroid m/z difference)” value [16] was −0.01 m/z, the “centroid m/z, on-beads/off-beads” value [17] was 1419.45 m/z and the “centroid m/z, on-solution/off beads” value [17] was 1419.48 m/z. For the same molecule, the “Δ (centroid m/z difference)” value [17] was 0.02 m/z, the “centroid m/z, on-beads/off-beads” value [18] was 1962.39 m/z and the “centroid m/z, on-solution/off beads” value [18] was 1962.58 m/z. The “centroid m/z, on-beads/off-beads” value [19] was 1962.63 m/z, the “centroid m/z, on-solution/off beads” value [19] was 1962.52 m/z and the “Δ (centroid m/z difference)” value [19] was −0.10 m/z. For the same molecule, the “centroid m/z, on-beads/off-beads” value [20] was 1560.76 m/z, the “centroid m/z, on-solution/off beads” value [20] was 1560.81 m/z and the “Δ (centroid m/z difference)” value [20] was 0.05 m/z. For the same molecule, the “centroid m/z, on-beads/off-beads” value [21] was 1560.83 m/z, the “centroid m/z, on-solution/off beads” value [21] was 1560.81 m/z and the “Δ (centroid m/z difference)” value [21] was −0.01 m/z. The “centroid m/z, on-beads/off-beads” value [22] was 2827.99 m/z, the “centroid m/z, on-solution/off beads” value [22] was 2828.15 m/z and the “Δ (centroid m/z difference)” value [22] was 0.16 m/z. For the same molecule, the “centroid m/z, on-beads/off-beads” value [23] was 2828.17 m/z, the “centroid m/z, on-solution/off beads” value [23] was 2827.99 m/z and the “Δ (centroid m/z difference)” value [23] was −0.18 m/z. For the same molecule, the “centroid m/z, on-beads/off-beads” value [24] was 2498.74 m/z, the “centroid m/z, on-solution/off beads” value [24] was 2498.70 m/z and the “Δ (centroid m/z difference)” value [24] was −0.04 m/z. The “centroid m/z, on-beads/off-beads” value [25] was 2498.88 m/z, the “centroid m/z, on-solution/off beads” value [25] was 2498.68 m/z and the “Δ (centroid m/z difference)” value [25] was −0.20 m/z. The “centroid m/z, on-beads/off-beads” value [26] was 1528.75 m/z, the “centroid m/z, on-solution/off beads” value [26] was 1528.68 m/z and the “Δ (centroid m/z difference)” value [26] was −0.06 m/z. The “centroid m/z, on-beads/off-beads” value [27] was 1528.71 m/z, the “centroid m/z, on-solution/off beads” value [27] was 1528.64 m/z and the “Δ (centroid m/z difference)” value [27] was −0.07 m/z.
